Measurements as given in patent publication US11639389B2.

Molecular target: Purified Fc fusion protein of Human CTLA4 (human)
Experiment: BLI (Fortebio), CTLA4-Fc immobilized by amine reactive chemistry

Kd: 2 nM
Substance: Anti CTLA4 IgG (BioLegend A3.B10.G1) (antibody)
